Experimental data from article PMC9856709 (Cancers, 2023).
Like-named read-outs stand apart in the source and are kept apart here. Numbered stars: 1 amine (or outer) side, 2 acyl side, 3 side chain; on linkers, the order of the positions; unused ones are H or OH. Square brackets hold non-standard residues; d marks the D form. Peptide text beside a SMILES is read from it. * marks the point of attachment. NOTA = O=C(O)CN1CCN(CC(=O)O)CCN(CC(=O)*)CC1; γGlu = O=C(O)[C@H](CCC(=O)[*:2])N[*:1]; Sta = CC(C)C[C@H](N)[C@@H](O)CC(=O)O; AEEA = NCCOCCOCC(=O)O; Aoc = NCCCCCCCC(=O)O; CO = O=C([*:1])[*:2]

What was measured:
PSMA and GRPR = experiment: In vivo binding specificity (blocked groups) in PC3-pip xenografted mice; design: species or system BALB/c nu/nu mice; conditions: 1 h pi
Method: (§1) Ex vivo experiments and in vivo imaging were carried out using BALB/c nu/nu mice bearing PC3-pip xenografts. All studies were performed according to the guidelines of the Declaration of Helsinki and approved by the Ethics Committee for Animal Research in Uppsala, Sweden (5.8.18-00473/2021. Approved on 26 February 2021).
(§2) There were 4 mice in each group. At 1 and 3 h pi, mice were sacrificed after an intraperitoneal injection of a Ketalar–Rompun solution (20 μL/g body weight) consisting of Ketalar (10 mg/mL) and Rompun (1 mg/mL), followed by heart puncture.

[1] = as above; design: species or system BALB/c nu/nu mice; conditions: BALB/c nu/nu, mouse, iv, total radioactivity, 1 h pi, 40 pmol iv, average ± SD
Method: as §1, §2

[2] = 37 °C, 1 h, ITLC
Method: After 1 h, samples were taken from all solutions and analysed by ITLC.

PC3-pip cell line = experiment: Cellular processing in PC3-pip cells; assay type: cell-based, human; conditions: 1 nM, 37 °C
Method: In vitro experiments were carried out using the PSMA- and GRPR-expressing human prostate carcinoma PC3-pip cell line (obtained from Prof. Martin Pomper, The Johns Hopkins University, Baltimore, MD, USA). Cells (5–7 × 10^5 cells/vial) were seeded 24–48 h before the experiments. All experiments were performed in triplicate.
At selected time points (1 and 3 h), cells were collected, and the total cell-associated activity was measured using an automated gamma counter. At 3 h, the membrane-bound and internalised fractions were collected separately using the acid and base method described earlier.

[3] = Stability in PBS and EDTA challenge; assay type: physicochemical; conditions: 1 h, ITLC
[4] = 3 h, acid and base method, triplicate

SMILES: CC(C)C[C@H](NC(=O)C[C@H](O)[C@H](CC(C)C)NC(=O)[C@H](Cc1c[nH]cn1)NC(=O)CNC(=O)[C@@H](NC(=O)[C@H](C)NC(=O)[C@H](Cc1c[nH]c2ccccc12)NC(=O)[C@H](CCC(N)=O)NC(=O)[C@@H](Cc1ccccc1)NC(=O)COCCOCCNC(=O)[C@H](CCCCNC(=O)CN1CCN(CC(=O)O)CCN(CC(=O)O)CC1)NC(=O)[C@H](Cc1ccccc1)NC(=O)CCCCCCCNC(=O)CC[C@H](NC(=O)N[C@@H](CCC(=O)O)C(=O)O)C(=O)O)C(C)C)C(N)=O [[^68Ga]Ga-BQ7812, metal not drawn] ({Glu-CO-γGlu-Aoc}-FK(NOTA)[AEEA][dF]QWAVGH[Sta]L-NH2)
- Uptake in tumour and pancreas, GRPR-blocked group compared with non-blocked group (PSMA and GRPR; co-injected NOTA-PEG2-RM26 5 nmol): statistically significantly lower
- Uptake in tumour and kidneys, PSMA-blocked group compared with non-blocked group (PSMA and GRPR; co-injected PSMA-11 5 nmol): statistically significantly lower
- tissue uptake at 1 h ([1]; blood, GRPR blocked (co-injected NOTA-PEG2-RM26 5 nmol), read-out: Uptake (%IA/g), Blood): 0.69 ± 0.28 %ID/g
- tissue uptake at 1 h ([1]; blood, PSMA blocked (co-injected PSMA-11 5 nmol), read-out: Uptake (%IA/g), Blood): 0.8 ± 0.24 %ID/g
- tissue uptake at 1 h ([1]; kidneys, GRPR blocked (co-injected NOTA-PEG2-RM26 5 nmol), read-out: Uptake (%IA/g), Kidneys): 34.5 ± 8.74 %ID/g
- tissue uptake at 1 h ([1]; kidneys, PSMA blocked (co-injected PSMA-11 5 nmol), read-out: Uptake (%IA/g), Kidneys): 13.8 ± 0.45 %ID/g
- tissue uptake at 1 h ([1]; pancreas, GRPR blocked (co-injected NOTA-PEG2-RM26 5 nmol), read-out: Uptake (%IA/g), Pancreas): 0.76 ± 0.14 %ID/g
- tissue uptake at 1 h ([1]; pancreas, PSMA blocked (co-injected PSMA-11 5 nmol), read-out: Uptake (%IA/g), Pancreas): 6.33 ± 1.86 %ID/g
- tissue uptake at 1 h ([1]; salivary glands, GRPR blocked (co-injected NOTA-PEG2-RM26 5 nmol), read-out: Uptake (%IA/g), Salivary Glands): 0.29 ± 0.07 %ID/g
- tissue uptake at 1 h ([1]; salivary glands, PSMA blocked (co-injected PSMA-11 5 nmol), read-out: Uptake (%IA/g), Salivary Glands): 0.38 ± 0.12 %ID/g
- tissue uptake at 1 h ([1]; tumour (PC3-pip xenograft), GRPR blocked (co-injected NOTA-PEG2-RM26 5 nmol), read-out: Uptake (%IA/g), Tumour (PC3-pip)): 5.73 ± 0.72 %ID/g
- tissue uptake at 1 h ([1]; tumour (PC3-pip xenograft), PSMA blocked (co-injected PSMA-11 5 nmol), read-out: Uptake (%IA/g), Tumour (PC3-pip)): 8.26 ± 1.03 %ID/g
- Release of free gallium-68 in human serum [2]: no release of free gallium-68 was detected
- Stability in human serum [2]: stable
- Binding to the targets in cellular processing (PC3-pip cell line; 1 and 3 h): rapid binding
- Internalised fraction of total cell-associated activity (PC3-pip cell line; [4]): approximately 20%
- Membrane-bound fraction of total cell-associated activity (PC3-pip cell line; [4]): ~80%
- Release of free gallium-68 under EDTA challenge ([3]; 1000-fold molar excess EDTA): minor release
- Release of free gallium-68 in PBS ([3]; PBS, room temperature): minor release
